Experimental data reported in paper PMC5681653, “Structural basis of arrestin-3 activation and signaling” (Nature Communications, 2017).

Assays:
[1] = target: His tagged JNK3α2 (UniProt P53779); assay: pull-down; His tagged JNK3α2 (10 µg) on Ni-NTA resin, arrestin-3 (10 µg) added with and without 100 µM IP6; wash 20 mM MOPS pH 7.4, 150 mM NaCl, 25 mM imidazole; eluted with 250 mM imidazole; Coomassie and Western, densitometry
[2] = target: T1, arrestin-3 (1-393) (Bos taurus, UniProt P32120); assay: microscale thermophoresis, two-site fit, pre-IR fluorescence change; format: binding
T1 construct: gene ARRB2; residues 1-393 (stop codon at L394, deletes 394-408), pTrcHisB, E. coli BL21 Gold, purified by heparin, Q/SP and size exclusion columns; 43 kD monomer, 134 kD trimer with IP6
T1 sequence (P32120 1-393 isoform P32120-2): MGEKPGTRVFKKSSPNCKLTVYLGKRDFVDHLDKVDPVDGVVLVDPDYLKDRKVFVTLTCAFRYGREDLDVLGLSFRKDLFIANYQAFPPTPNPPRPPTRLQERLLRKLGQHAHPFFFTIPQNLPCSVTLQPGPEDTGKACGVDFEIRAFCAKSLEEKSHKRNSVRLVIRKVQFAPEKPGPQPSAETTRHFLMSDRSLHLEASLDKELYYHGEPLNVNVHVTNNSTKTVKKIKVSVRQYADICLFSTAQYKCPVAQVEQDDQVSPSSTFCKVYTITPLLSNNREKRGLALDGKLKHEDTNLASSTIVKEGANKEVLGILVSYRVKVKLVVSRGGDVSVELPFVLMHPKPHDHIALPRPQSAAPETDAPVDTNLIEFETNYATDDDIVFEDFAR

Chain of His tagged JNK3α2 (P53779 whole entry): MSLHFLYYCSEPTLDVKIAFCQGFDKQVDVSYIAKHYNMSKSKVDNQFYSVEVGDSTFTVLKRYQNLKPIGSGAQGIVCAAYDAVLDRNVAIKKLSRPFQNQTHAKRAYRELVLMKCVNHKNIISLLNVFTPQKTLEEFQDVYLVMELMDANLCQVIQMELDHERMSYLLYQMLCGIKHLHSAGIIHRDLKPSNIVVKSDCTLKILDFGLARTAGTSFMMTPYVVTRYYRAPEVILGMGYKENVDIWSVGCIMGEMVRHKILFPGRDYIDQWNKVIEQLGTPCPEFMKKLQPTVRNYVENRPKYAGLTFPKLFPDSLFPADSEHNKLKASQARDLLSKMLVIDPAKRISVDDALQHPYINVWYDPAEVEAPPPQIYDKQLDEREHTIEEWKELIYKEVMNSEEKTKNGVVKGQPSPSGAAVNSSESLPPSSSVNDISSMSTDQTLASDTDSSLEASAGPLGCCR

Row | fold change of bound arrestin-3 with 100 µM IP6 against without IP6 [1] | Kd [2] | Molecule
1 | 2 fold | – | bovine arrestin-3 (1-393) (domain or fragment)
2 | – | 57 nM | O=P(O)(O)O[C@H]1[C@H](OP(=O)(O)O)[C@@H](OP(=O)(O)O)[C@H](OP(=O)(O)O)[C@@H](OP(=O)(O)O)[C@H]1OP(=O)(O)O [IP6]
